Reference: patent publication US20060057701A1 (RINAT NEUROSCIENCE, published 2006)
Ends that are not written are not given here.

Assays:
[1] = biological target: T1, biotinylated Aβ 20-34 peptide with C-terminal glycine (human, also: biotinylated, position not given here); assay: ELISA: biotinylated peptide on streptavidin plate, goat anti-human kappa HRP, absorbance at 450 nm
T1 peptide: FAEDVGSNKGAIIGLG

[2] = biological target: T2, biotinylated Aβ 25-39 peptide with C-terminal glycine (human, also: biotinylated, position not given here); assay: as above
T2 peptide: GSNKGAIIGLMVGGVG

[3] = biological target: T3, biotinylated Aβ 24-38 peptide with C-terminal glycine (human, also: biotinylated, position not given here); assay: as above
T3 peptide: VGSNKGAIIGLMVGGG

[4] = biological target: T4, biotinylated Aβ 23-37 peptide with C-terminal glycine (human, also: biotinylated, position not given here); assay: as above
T4 peptide: DVGSNKGAIIGLMVGG

[5] = biological target: T5, biotinylated Aβ 21-35 peptide with C-terminal glycine (human, also: biotinylated, position not given here); assay: as above
T5 peptide: AEDVGSNKGAIIGLMG

[6] = biological target: T6, biotinylated Aβ 22-36 peptide with C-terminal glycine (human, also: biotinylated, position not given here); assay: as above
T6 peptide: EDVGSNKGAIIGLMVG

[7] = biological target: T7, Aβ28-42 peptide (human); assay: SPR competition: soluble peptide against immobilized Aβ1-40, Fab at 50 nM
T7 peptide: KGAIIGLMVGGVVIA
Procedure: (§1) To determine the epitope on Aβ polypeptide that is recognized by antibody 9TL, Surface Plasmon Resonance (SPR, Biacore 3000) binding analysis was used. Aβ₁₋₄₀ polypeptide coupled to biotin (Global Peptide Services, CO) was immobilized on a streptavidin-coated chip (SA chip). The binding of Aβ antibodies Fab fragments (at 50 nM) to the immobilized Aβ₁₋₄₀ in the absence or presence of different soluble fragments of the Aβ peptide (at 10 μM, from American Peptide Company Inc., CA). Amino acid sequences of Aβ₁₋₄₀, Aβ₁₋₄₂, and Aβ₁₋₄₃ are shown in below in Table 4. The Aβ peptides which displaced binding of antibody 9TL Fab fragment to Aβ₁₋₄₀ were Aβ₂₈₋₄₀, Aβ₁₋₄₀, Aβ₃₃₋₄₀, and Aβ₁₇₋₄₀, respectively (FIG. 2). Thus, antibody 9TL binds to a C-terminal peptide (33-40) of Aβ₁₋₄₀.

[8] = biological target: T8, Aβ1-43 peptide (human); assay: as above
T8 construct: also called 1-43 (WT)
T8 sequence (peptide, as listed by the source): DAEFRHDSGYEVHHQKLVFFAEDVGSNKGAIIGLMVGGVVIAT
Procedure: as §1

[9] = biological target: T9, murine FcγRIII (murine, UniProt P08508 31-215, limits assumed); assay: SPR, receptor on CM5 chip, antibody flowed
T9 construct: Bought; also called mFcγRIII
T9 sequence (looked up): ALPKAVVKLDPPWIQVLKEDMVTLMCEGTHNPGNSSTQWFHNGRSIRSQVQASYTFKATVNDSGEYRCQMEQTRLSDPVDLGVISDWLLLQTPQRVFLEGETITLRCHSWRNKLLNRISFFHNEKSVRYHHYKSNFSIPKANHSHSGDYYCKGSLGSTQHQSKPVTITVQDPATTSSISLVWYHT
Procedure: (§2) Binding affinity of the antibody Fc regions to Fcγ receptors or complement were measured using BIAcore as described above. Briefly, purified human or murine Fcγ receptors (from R&D Systems) and human C1q (from Quidel) were immobilized on BIAcore CM5 chip by amine chemistry. Serial dilutions of monoclonal antibodies (ranging from 2 nM to the maximum concentration as indicated in Tables 16 and 17) were injected. HBS-EP (0.01M HEPES, pH 7.4, 0.15 M NaCl, 3 mM EDTA, 0.005% Surfactant P20) as running and sample buffer. Binding data were analyzed using 1:1 langmuir interaction model for high affinity interactions, or steady state affinity model for low affinity interactions.

[10] = biological target: T10, human FcγRIIb/c (human, UniProt P31994 46-217, limits assumed); assay: SPR, receptor on CM5 chip, antibody flowed
T10 construct: Bought
T10 sequence (looked up): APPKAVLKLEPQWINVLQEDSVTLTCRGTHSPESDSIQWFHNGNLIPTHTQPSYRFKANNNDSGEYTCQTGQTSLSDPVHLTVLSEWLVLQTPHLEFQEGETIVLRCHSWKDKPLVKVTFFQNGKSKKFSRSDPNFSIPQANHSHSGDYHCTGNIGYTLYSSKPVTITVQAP
Procedure: as §2

[11] = biological target: T11, murine FcγRIIb (murine, UniProt P08101 40-217, limits assumed); assay: SPR, receptor on CM5 chip, antibody flowed
T11 construct: Bought; also called mFcγRIIb
T11 sequence (looked up): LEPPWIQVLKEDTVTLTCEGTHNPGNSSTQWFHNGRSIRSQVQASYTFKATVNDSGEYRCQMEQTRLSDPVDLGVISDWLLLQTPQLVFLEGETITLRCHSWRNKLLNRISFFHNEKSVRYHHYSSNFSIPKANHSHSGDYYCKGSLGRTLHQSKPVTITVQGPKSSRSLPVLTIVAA
Procedure: as §2

[12] = biological target: T12, human FcγRI (human, UniProt P12314 16-288, limits assumed); assay: SPR, receptor on CM5 chip, antibody flowed
T12 construct: Bought
T12 sequence (P12314 16-288 limits assumed): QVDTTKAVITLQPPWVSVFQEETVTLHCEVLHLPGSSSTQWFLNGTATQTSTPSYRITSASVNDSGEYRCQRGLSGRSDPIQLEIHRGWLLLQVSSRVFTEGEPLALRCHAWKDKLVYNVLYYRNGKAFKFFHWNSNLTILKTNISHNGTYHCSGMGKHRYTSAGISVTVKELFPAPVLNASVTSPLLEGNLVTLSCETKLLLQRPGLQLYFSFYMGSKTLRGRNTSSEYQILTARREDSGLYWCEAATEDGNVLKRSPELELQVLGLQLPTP
Procedure: as §2

[13] = biological target: T13, murine FcγRI (murine, UniProt P26151 25-297, limits assumed); assay: SPR, receptor on CM5 chip, antibody flowed
T13 construct: Bought; also called mFcγRI
T13 sequence (looked up): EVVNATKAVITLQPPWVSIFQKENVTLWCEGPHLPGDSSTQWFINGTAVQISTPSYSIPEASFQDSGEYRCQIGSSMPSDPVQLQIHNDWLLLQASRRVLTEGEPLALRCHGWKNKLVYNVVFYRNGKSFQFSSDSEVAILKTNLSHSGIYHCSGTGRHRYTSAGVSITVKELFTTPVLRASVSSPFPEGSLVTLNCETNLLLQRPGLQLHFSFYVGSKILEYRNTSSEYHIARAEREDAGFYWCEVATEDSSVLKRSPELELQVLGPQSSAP
Procedure: as §2

[14] = biological target: T14, human C1q (human, UniProt P02745 23-245; P02746 28-253; P02747 29-245); assay: SPR, C1q on CM5 chip, antibody flowed
T14 construct: also called hC1q; human complement
T14 sequence (P02745 23-245 limits assumed, chain 1 of 3): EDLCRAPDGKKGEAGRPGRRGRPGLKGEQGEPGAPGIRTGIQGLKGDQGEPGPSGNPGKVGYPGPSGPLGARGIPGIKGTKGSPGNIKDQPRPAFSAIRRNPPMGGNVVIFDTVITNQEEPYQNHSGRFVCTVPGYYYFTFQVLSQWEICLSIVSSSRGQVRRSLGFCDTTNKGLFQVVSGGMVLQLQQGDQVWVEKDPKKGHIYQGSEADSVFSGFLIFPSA
T14 sequence (P02746 28-253 limits assumed, chain 2 of 3): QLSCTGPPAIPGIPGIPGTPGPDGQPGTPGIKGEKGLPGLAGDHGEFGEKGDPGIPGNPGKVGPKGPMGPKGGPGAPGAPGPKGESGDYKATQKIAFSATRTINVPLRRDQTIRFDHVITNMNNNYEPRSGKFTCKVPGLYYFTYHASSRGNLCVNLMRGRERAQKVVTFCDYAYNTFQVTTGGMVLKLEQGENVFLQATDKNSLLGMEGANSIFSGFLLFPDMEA
T14 sequence (P02747 29-245 limits assumed, chain 3 of 3): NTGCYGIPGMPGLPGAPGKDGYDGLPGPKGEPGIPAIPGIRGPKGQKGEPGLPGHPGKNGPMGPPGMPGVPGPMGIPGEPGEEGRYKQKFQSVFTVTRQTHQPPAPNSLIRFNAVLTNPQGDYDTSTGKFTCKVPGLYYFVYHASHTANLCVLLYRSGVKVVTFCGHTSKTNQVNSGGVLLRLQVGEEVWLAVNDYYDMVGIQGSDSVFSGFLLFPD
Procedure: as §2

B1: antibody 6G (antibody, human IgG2, kappa, V domains shown)
VH: QVQLVQSGAEVKKPGASVKVSCKASGYTFTTYAIHWVRQAPGQGLEWMGFTSPYSGVSNYNQKFKGRVTMTRDTSTSTVYMELSSLRSEDTAVYYCARFDNYDRGYVRDYWGQGTLVTVSS
VL: DIVMTQSPDSLAVSLGERATINCRASESVDNDRISFLNWYQQKPGQPPKLLIYAATKQGTGVPDRFSGSGSGTDFTLTISSLQAEDVAVYYCQQSKEFPWSFGGGTKVEIKR
notes: Full antibody with modified human IgG2a (A330P331 to S330S331) and human kappa
For B1, the “absorbance at 450 nm” value [1] was > 3, the “absorbance at 450 nm” value [2] was 1.5 and the “absorbance at 450 nm” value [3] was 2.1. The “absorbance at 450 nm” value [4] was 2.3, the “absorbance at 450 nm” value [5] was > 3 and the “absorbance at 450 nm” value [6] was > 3.

B2: antibody 9TL Fab fragment (Fab, V domains shown)
VH: QVQLVQSGAEVKKPGASVKVSCKASGYYTEAYYIHWVRQAPGQGLEWMGRIDPATGNTKYAPRLQDRVTMTRDTSTSTVYMELSSLRSEDTAVYYCASLYSLPVYWGQGTTVTVSS
VL: DVVMTQSPLSLPVTLGQPASISCKSSQSLLYSDAKTYLNWFQQRPGQSPRRLIYQISRLDPGVPDRFSGSGSGTDFTLKISRVEAEDVGVYYCLQGTHYPVLFGQGTRLEIKR
notes: Fab expressed in E. coli
B2: no binding (tested: 10 µM peptide) [7]; no binding (tested: 10 µM peptide) [8].

B3: antibody 9TL (antibody, human IgG2, kappa)
heavy: QVQLVQSGAEVKKPGASVKVSCKASGYYTEAYYIHWVRQAPGQGLEWMGRIDPATGNTKYAPRLQDRVTMTRDTSTSTVYMELSSLRSEDTAVYYCASLYSLPVYWGQGTTVTVSSASTKGPSVFPLAPCSRSTSESTAALGCLVKDYFPEPVTVSWNSGALTSGVHTFPAVLQSSGLYSLSSVVTVPSSNFGTQTYTCNVDHKPSNTKVDKTVERKCCVECPPCPAPPVAGPSVFLFPPKPKDTLMISRTPEVTCVVVDVSHEDPEVQFNWYVDGVEVHNAKTKPREEQFNSTFRVVSVLTVVHQDWLNGKEYKCKVSNKGLPSSIEKTISKTKGQPREPQVYTLPPSREEMTKNQVSLTCLVKGFYPSDIAVEWESNGQPENNYKTTPPMLDSDGSFFLYSKLTVDKSRWQQGNVFSCSVMHEALHNHYTQKSLSLSPGK
light: DVVMTQSPLSLPVTLGQPASISCKSSQSLLYSDAKTYLNWFQQRPGQSPRRLIYQISRLDPGVPDRFSGSGSGTDFTLKISRVEAEDVGVYYCLQGTHYPVLFGQGTRLEIKRTVAAPSVFIFPPSDEQLKSGTASVVCLLNNFYPREAKVQWKVDNALQSGNSQESVTEQDSKDSTYSLSSTLTLSKADYEKHKVYACEVTHQGLSSPVTKSFNRGEC
notes: Full antibody; human IgG2a constant region with A330P331 to S330S331, human kappa; transient expression in HEK 293 cells; also called 9TL mAb; 9TL(hIgG2Δa); copies: 2 + 2
In the case of B3, the binding result [9] is reported as “no binding (tested: 30,000 nM)”, the Kd [10] is reported as 61 µM and the binding result [11] is reported as “no binding (tested: 30,000 nM)”. B3: no binding (tested: 30 µM) [12]; no binding (tested: 30,000 nM) [13]; no binding (tested: 30,000 nM) [14].
